The target in the experiment is Histone H4 (UniProt P62805). Description: SPR. A general note: SPR reads the build-up and loss of mass on a sensor chip optically.

Here are results for 1 substance from paper PMC5827136.

“protein SIC (Streptococcal Inhibitor of Complement) (natural protein)” came in with a Kd of 17.6 nM, a koff of 0.000591 s⁻¹ and a kon of 33500 M⁻¹ s⁻¹.

The Kd is the concentration at which binding is half-saturated. A lower Kd goes with higher affinity. In general, koff refers to the rate constant with which the complex falls apart. A low value points to a long-lived complex. As a reminder, the kon is a measure of how fast the partners come together. High values mean faster complex formation, low ones slower complex formation.
